Data published in PMC10716122.

Assays:
[1] = target: LINE-1 (L1) ORF1p (human) (UniProt Q9UN81); assay: not stated; formation of the ORF1p trimer with or without cGAS, Supplementary Fig. 2o; method not given
[2] = target: TRIM41 (UniProt Q8WV44); assay: co-immunoprecipitation; conditions: reference: wild-type cGAS

Substance: LINE-1 (L1) ORF1p (from UniProt Q9UN81 1-338) (natural protein)
- stoichiometry N [1]: 3

Substance: cGAS (from UniProt Q8N884) S120A
- binding against the reference ([2]; sites S120): weaker

Substance: cGAS (from UniProt Q8N884) S305A
- binding against the reference ([2]; sites S305): weaker
